The values that follow come from the Immune Epitope Database (IEDB).

Some targets named below: HLA-A*11:01; HLA-A*33:01; HLA-A*03:01; HLA-A*68:01; HLA-A*31:01.
Holding throughout (test): IEDB peptide-MHC binding, purified MHC/competitive/radioactivity; filed as Kd, often an IC50 or EC50 that approximates it; ≥ and ≤ were set here for values at or beyond the usual limits of such assays
The mark [1] stands for this setting: source organism: Vaccinia virus WR.
Where [2] appears, read: source organism: Dengue virus 4 Philippines/H241/1956.
Where [3] appears, read: source organism: Vaccinia virus Copenhagen.
[4] abbreviates: source organism: Dengue virus 3 Martinique/1243/1999.
The mark [5] stands for this setting: source organism: Dengue virus 2 Jamaica/1409/1983.
The mark [6] stands for this setting: source organism: Mammarenavirus brazilense.
Setting [7] is: source organism: SARS coronavirus Tor2.
[8] abbreviates: source organism: Dengue virus 1 Brazil/97-11/1997.
[9] abbreviates: source organism: Vaccinia virus LC16M8.

What is called Kd is the concentration at which binding is half-saturated. For HINALEYIIK, the Kd in the assay with HLA-A*11:01 (setting [1]) amounted to 87.9 nM; with HLA-A*33:01 (setting [1]) it was 200 nM; with HLA-A*03:01 (setting [1]), 117 nM; with HLA-A*68:01 (setting [1]) it was 35.9 nM; with HLA-A*31:01 (setting [1]) it was 1520 nM.
For the sequence IAVSTANIFR, the Kd with HLA-A*33:01 (setting [2]) turned out to be 1050 nM; with HLA-A*68:01 (setting [2]) it was 9.46 nM.
As for IFAFIDFSK, the Kd stood at 20.5 nM in the assay with HLA-A*11:01 (setting [3]); 42.6 nM with HLA-A*33:01 (setting [3]); 78.2 nM in the assay with HLA-A*03:01 (setting [3]); 8.56 nM with HLA-A*68:01 (setting [3]); 251 nM with HLA-A*31:01 (setting [3]).
As for IFREIASSMK, the Kd with HLA-A*11:01 (setting [1]) was 1570 nM; with HLA-A*33:01 (setting [1]), 467 nM; with HLA-A*03:01 (setting [1]), 198 nM; with HLA-A*68:01 (setting [1]), 3470 nM; with HLA-A*31:01 (setting [1]) it was 425 nM.
Turning to IITPVVFYR, the equilibrium dissociation constant (Kd) was 0.322 nM in the assay with HLA-A*11:01 (setting [1]); 6.62 nM in the assay with HLA-A*33:01 (setting [1]); 59.2 nM with HLA-A*03:01 (setting [1]); 0.0181 nM with HLA-A*68:01 (setting [1]); 1.08 nM with HLA-A*31:01 (setting [1]).
For the sequence IMVASDVCK, the Kd amounted to 369 nM with HLA-A*11:01 (setting [1]); 3480 nM with HLA-A*33:01 (setting [1]); 150 nM with HLA-A*03:01 (setting [1]); 408 nM in the assay with HLA-A*68:01 (setting [1]); 991 nM with HLA-A*31:01 (setting [1]).
With ISARALKAY, the Kd with HLA-A*11:01 (setting [1]) was determined as 334 nM; with HLA-A*33:01 (setting [1]), 16400 nM; with HLA-A*03:01 (setting [1]), 542 nM; with HLA-A*68:01 (setting [1]), 2470 nM; in the assay with HLA-A*31:01 (setting [1]), 9600 nM.
As to ISIMIEEVMR, the Kd with HLA-A*68:01 (source organism: Dengue virus 1 Singapore/S275/1990) was 82.3 nM.
On to ITNITTDSR, for which, in the assay with HLA-A*68:01 (setting [4]), the Kd amounted to 26.3 nM.
Regarding ITPDDGLGLR, the equilibrium dissociation constant (Kd) was 16200 nM with HLA-A*11:01 (setting [1]); 9910 nM with HLA-A*33:01 (setting [1]); not below 70100 nM with HLA-A*03:01 (setting [1]); 69.2 nM with HLA-A*68:01 (setting [1]); 11600 nM with HLA-A*31:01 (setting [1]).
Regarding ITVDDDGTMR, in the assay with HLA-A*68:01 (setting [4]), the Kd was determined as 77.3 nM.
With ITVNPIVTEK, the Kd with HLA-A*11:01 (setting [5]) amounted to 69.2 nM; in the assay with HLA-A*03:01 (setting [5]) it was 24.1 nM; with HLA-A*68:01 (setting [5]), 154 nM.
For the sequence IVNNQESNK, the Kd in the assay with HLA-A*11:01 (setting [3]) was 147 nM; in the assay with HLA-A*33:01 (setting [3]), not below 77700 nM; in the assay with HLA-A*03:01 (setting [3]), 132 nM; with HLA-A*68:01 (setting [3]), 111 nM; in the assay with HLA-A*31:01 (setting [3]) it was 1180 nM.
As to KCSDHYICLK, the Kd with HLA-A*11:01 (setting [6]) was 1890 nM; with HLA-A*33:01 (setting [6]), 8220 nM; in the assay with HLA-A*03:01 (setting [6]), 276 nM; with HLA-A*68:01 (setting [6]), not below 70100 nM; in the assay with HLA-A*31:01 (setting [6]), 482 nM.
For KFTTSLSLHK, the Kd with HLA-A*11:01 (setting [7]) turned out to be 135 nM; with HLA-A*33:01 (setting [7]) it was 8190 nM; with HLA-A*03:01 (setting [7]), 275 nM; with HLA-A*68:01 (setting [7]), 302 nM; in the assay with HLA-A*31:01 (setting [7]), 239 nM.
With KIVDHIVMY, the Kd with HLA-A*11:01 (setting [1]) was 92.2 nM; in the assay with HLA-A*33:01 (setting [1]), not below 24800 nM; in the assay with HLA-A*03:01 (setting [1]), 17.9 nM; with HLA-A*68:01 (setting [1]), 7980 nM; with HLA-A*31:01 (setting [1]), 11800 nM.
For the sequence KLITPNYMK, the Kd with HLA-A*11:01 (setting [1]) was 5.08 nM; with HLA-A*33:01 (setting [1]), not below 59300 nM; in the assay with HLA-A*03:01 (setting [1]) it was 10.3 nM; with HLA-A*68:01 (setting [1]), 2790 nM; with HLA-A*31:01 (setting [1]), 486 nM.
Take KSEFNTYKR: the Kd with HLA-A*31:01 (setting [8]) was found to be 1340 nM.
Take KSKNINIEVK: the Kd in the assay with HLA-A*11:01 (setting [1]) is 568 nM; in the assay with HLA-A*33:01 (setting [1]), not below 70000 nM; with HLA-A*03:01 (setting [1]) it was 305 nM; with HLA-A*68:01 (setting [1]) it was 13300 nM; with HLA-A*31:01 (setting [1]), 1070 nM.
As for KSSSIDVDKR, the Kd with HLA-A*11:01 (setting [1]) came to 550 nM; with HLA-A*33:01 (setting [1]) it was 8180 nM; in the assay with HLA-A*03:01 (setting [1]) it was 2630 nM; in the assay with HLA-A*68:01 (setting [1]) it was 17 nM; with HLA-A*31:01 (setting [1]) it was 84.4 nM.
As for KTDFKVVKK, the Kd came to 60.6 nM in the assay with HLA-A*11:01 (setting [1]); 1210 nM with HLA-A*33:01 (setting [1]); 14.8 nM with HLA-A*03:01 (setting [1]); 365 nM with HLA-A*68:01 (setting [1]); 71.1 nM with HLA-A*31:01 (setting [1]).
Consider LFASADNHPK, for which the Kd in the assay with HLA-A*11:01 (setting [9]) was 85.9 nM; in the assay with HLA-A*33:01 (setting [9]), 9860 nM; with HLA-A*03:01 (setting [9]), 399 nM; in the assay with HLA-A*68:01 (setting [9]), 264 nM; in the assay with HLA-A*31:01 (setting [9]), 9330 nM.
For the sequence LSRLRYNLCK, the Kd in the assay with HLA-A*11:01 (setting [1]) worked out at 715 nM; in the assay with HLA-A*33:01 (setting [1]), 2640 nM; in the assay with HLA-A*03:01 (setting [1]) it was 92.9 nM; with HLA-A*68:01 (setting [1]) it was 3510 nM; with HLA-A*31:01 (setting [1]), 206 nM.
MGYWIESQK: the results for the Kd in the assay with HLA-A*03:01 (setting [4]) and with HLA-A*68:01 (setting [4]) were 12.8 nM and 67.2 nM, respectively.
Consider MLNILNGRKR, for which the Kd with HLA-A*31:01 (setting [2]) worked out at 17.3 nM.
Take MWTLMYFHRR: the Kd in the assay with HLA-A*33:01 (setting [5]) was found to be 29.8 nM; with HLA-A*31:01 (setting [5]), 33.6 nM.
As for RFWDLVHRER, the Kd with HLA-A*33:01 (setting [8]) is 19.7 nM; in the assay with HLA-A*31:01 (setting [8]) it was not below 49800 nM.
Turning to RIMQRGLFGK, the Kd with HLA-A*11:01 (setting [2]) came to 29.5 nM; in the assay with HLA-A*03:01 (setting [2]), 5.43 nM; in the assay with HLA-A*31:01 (setting [2]) it was 10.9 nM.
Take STPIVVQMTK: in the assay with HLA-A*11:01 (setting [7]), the Kd is 14.2 nM.
As to TFHTMWHVTR, the figures for the Kd with HLA-A*33:01 (setting [5]) and with HLA-A*31:01 (setting [5]) were 7.95 nM and 19.1 nM, respectively.
On to TLFGPEREK, for which the Kd with HLA-A*03:01 (setting [2]) is 85.9 nM.
With VFHTMWHVTR, the Kd with HLA-A*33:01 (setting [4]) was determined as 135 nM; with HLA-A*31:01 (setting [4]), 4.53 nM.
